From US20240360179A1 come the findings set out here.

Where only a bound is given, the exact number is not on record here.

In test [1] the target is full-length B-Catenin (Uniprot ID P35222) (human). As to the kind of experiment: competition fluorescence polarization. On the technique in general: Fluorescence polarisation rises when a labelled molecule tumbles more slowly, as on binding a larger partner.
Test [2] deals with beta-catenin fused to HaloTag (Bcat-Halo NanoBRET construct), expressed in HEK293 cells (UniProt P35222). As to the kind of experiment: NanoBRET Abs IC50 in HEK293 cells, beta-catenin-HaloTag against TCF4-NanoLuc. A general note: Bioluminescence resonance energy transfer reports proximity on the nanometre scale.
Test [3] addresses full-length B-Catenin (Uniprot ID P35222) (human). Nature of the test: competition fluorescence polarization, displacement of 5FAM-TCF4.
The target of test [4] is beta-catenin in DLD1 TCF reporter cells (UniProt P35222). Nature of the test: cell-based or functional assay.
Test [5] addresses full-length beta-catenin (Uniprot ID P35222) (human). As to the kind of experiment: competition fluorescence polarization.
The target of test [6] is beta-catenin fused to HaloTag (NanoBRET acceptor construct), expressed in HEK293 cells (UniProt P35222). Nature of the test: NanoBRET in HEK293 cells, beta-catenin-HaloTag against TCF4-NanoLuc.
The target in test [7] is endogenous beta-catenin in cells (DLD1, HAP1 WT) (human). Nature of the test: cell-based or functional assay.
Chain of endogenous beta-catenin in cells (DLD1, HAP1 WT) (human) (P35222 2-781): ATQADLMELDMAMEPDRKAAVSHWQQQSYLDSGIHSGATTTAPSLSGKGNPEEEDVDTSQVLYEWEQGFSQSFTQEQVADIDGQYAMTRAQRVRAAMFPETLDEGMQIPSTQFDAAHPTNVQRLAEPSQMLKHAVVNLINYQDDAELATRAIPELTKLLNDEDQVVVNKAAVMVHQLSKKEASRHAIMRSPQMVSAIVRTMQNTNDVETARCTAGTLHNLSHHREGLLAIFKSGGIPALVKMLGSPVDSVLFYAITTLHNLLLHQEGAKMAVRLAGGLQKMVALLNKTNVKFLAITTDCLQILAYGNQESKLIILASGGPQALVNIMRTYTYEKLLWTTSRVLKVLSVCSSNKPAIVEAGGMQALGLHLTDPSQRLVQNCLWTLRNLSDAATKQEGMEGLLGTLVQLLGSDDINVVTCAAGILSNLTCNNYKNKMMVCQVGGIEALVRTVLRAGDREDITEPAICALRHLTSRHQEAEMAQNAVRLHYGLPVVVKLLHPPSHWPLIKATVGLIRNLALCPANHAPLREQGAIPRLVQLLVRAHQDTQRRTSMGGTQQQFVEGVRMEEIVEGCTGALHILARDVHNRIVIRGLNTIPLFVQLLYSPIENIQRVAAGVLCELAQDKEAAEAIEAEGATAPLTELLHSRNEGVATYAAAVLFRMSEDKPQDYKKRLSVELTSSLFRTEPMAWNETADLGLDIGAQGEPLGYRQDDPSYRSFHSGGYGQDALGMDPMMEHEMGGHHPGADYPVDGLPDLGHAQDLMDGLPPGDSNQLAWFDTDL

Chain of beta-catenin fused to HaloTag (Bcat-Halo NanoBRET construct), expressed in HEK293 cells (P35222 whole entry, the tested form may be a part): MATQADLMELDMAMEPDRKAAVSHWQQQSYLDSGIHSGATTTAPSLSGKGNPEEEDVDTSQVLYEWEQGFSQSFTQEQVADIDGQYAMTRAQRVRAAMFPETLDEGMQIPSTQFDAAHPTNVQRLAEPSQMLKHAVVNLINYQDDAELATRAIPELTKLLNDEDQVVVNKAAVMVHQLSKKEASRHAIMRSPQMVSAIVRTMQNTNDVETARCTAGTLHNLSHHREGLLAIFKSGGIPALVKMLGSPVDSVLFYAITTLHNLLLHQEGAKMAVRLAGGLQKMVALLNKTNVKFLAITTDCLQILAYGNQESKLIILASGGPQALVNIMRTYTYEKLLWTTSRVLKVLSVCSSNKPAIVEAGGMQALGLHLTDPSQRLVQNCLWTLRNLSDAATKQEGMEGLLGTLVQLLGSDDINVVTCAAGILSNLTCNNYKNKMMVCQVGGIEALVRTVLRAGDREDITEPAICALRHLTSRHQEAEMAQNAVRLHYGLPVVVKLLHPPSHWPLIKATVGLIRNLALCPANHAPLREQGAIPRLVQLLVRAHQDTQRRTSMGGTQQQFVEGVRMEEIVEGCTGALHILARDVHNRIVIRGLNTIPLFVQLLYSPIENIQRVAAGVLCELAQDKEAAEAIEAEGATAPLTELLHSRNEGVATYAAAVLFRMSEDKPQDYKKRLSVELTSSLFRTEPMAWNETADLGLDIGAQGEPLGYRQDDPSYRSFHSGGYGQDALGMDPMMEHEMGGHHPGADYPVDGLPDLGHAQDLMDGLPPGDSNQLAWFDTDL
Chain of beta-catenin in DLD1 TCF reporter cells (P35222 2-781 limits assumed): as the sequence (P35222 2-781) above
Chain of full-length B-Catenin (Uniprot ID P35222) (human) (P35222 whole entry, the tested form may be a part): as the sequence (P35222 whole entry, the tested form may be a part) above
Chain of beta-catenin fused to HaloTag (NanoBRET acceptor construct), expressed in HEK293 cells (P35222 whole entry, the tested form may be a part): as above

For the substance “1PydoneAc-PL3-Asp-Npg-B5-Asp-3COOHF-Aib-Ala-Phe-Lys*3-PyrS2-3Thi-BztA-GlnR*3-Ala-NH2 (peptide)”, in test [1], the IC50 (commonly the concentration needed to halve the response being measured) was less than 0.05 µM. On the same count and under the same terms, the result for “1Pyrazole Ac-PL3-Asp-Npg-B5-Asp-3COOHF-Aib-Ala-Phe-Lys*3-PyrS2-3Thi-BztA-GlnR*3-Ala-NH2 (peptide)” reads less than 0.05 µM; that for “3Py Ac-PL3-Asp-Npg-B5-Asp-3COOHF-Aib-Ala-Phe-Lys*3-PyrS2-3Thi-BztA-GlnR*3-Ala-NH2 (peptide)”, less than 0.05 µM.

“3PyPrpc-PL3-Asp-Npg-B5-Asp-3COOHF-Aib-Ala-Phe-Lys*3-PyrS2-3Thi-BztA-GlnR*3-Ala-NH2 (peptide)” showed an IC50 in test [1] of less than 0.05 µM. In turn, “4PyPrpc-PL3-Asp-Npg-B5-Asp-3COOHF-Aib-Ala-Phe-Lys*3-PyrS2-3Thi-BztA-GlnR*3-Ala-NH2 (I-1070) (peptide)” gave an IC50 in test [1] of less than 0.05 µM.

Substance “4PyPrpc-PL3-Asp-Npg-B5-Asp-3COOHF-Aib-Ala-Phe-Lys*3-PyrS2-3Thi-BztA-GlnR*3-Ala-NH2 (I-1071) (peptide)” came in with an IC50 in test [1] of less than 0.05 µM. Turning to “5PymAc-PL3-Asp-Npg-B5-Asp-3COOHF-Aib-Ala-Phe-Lys*3-PyrS2-3Thi-BztA-GlnR*3-Ala-NH2 (peptide)”, the half-inhibitory concentration (IC50) in test [1] was less than 0.05 µM. Take “123TriAc-PL3-Asp-Npg-B5-Asp-3COOHF-Aib-Ala-Phe-Lys*3-PyrS2-3Thi-BztA-GlnR*3-Ala-NH2 (peptide)”: the IC50 in test [1] was less than 0.05 µM. “Ac-PL3-Asp-Npg-B5-Asp-2COOHF-Aib-Ala-Phe-Lys*3-PyrS2-2F3MeF-BztA-GlnR*3-Ala-NH2 (peptide)”: in test [2], the IC50 was less than 3 µM. The same measure, in the same setting: for “Ac-PL3-Asp-Npg-B5-Asp-3F2COOHF-Aib-Ala-Phe-Lys*3-PyrS2-2F3MeF-BztA-GlnR*3-Ala-NH2 (peptide)” the value was more than 3 µM.

In the case of “Ac-PL3-Asp-Npg-B5-Asp-4F3Me2COOHF-Aib-Ala-Phe-Lys*3-PyrS2-2F3MeF-BztA-GlnR*3-Ala-NH2 (peptide)”, in test [2], the IC50 was more than 3 µM. On the same count and under the same terms, the result for “Ac-PL3-Asp-Npg-B5-Asp-4F3Me3COOHF-Aib-Ala-Phe-Lys*3-PyrS2-2F3MeF-BztA-GlnR*3-Ala-NH2 (peptide)” reads less than 3 µM; that for “Ac-PL3-Asp-Npg-B5-Asp-5F3Me2COOHF-Aib-Ala-Phe-Lys*3-PyrS2-2F3MeF-BztA-GlnR*3-Ala-NH2 (peptide)”, more than 3 µM. The substance “Ac-PL3-Asp-Npg-B5-Asp-5F3Me3COOHF-Aib-Ala-Phe-Lys*3-PyrS2-2F3MeF-BztA-GlnR*3-Ala-NH2 (peptide)” gave an IC50 in test [3] of less than 0.05 µM.

Consider “Ac-PL3-Asp-Npg-B5-Asp-Ala-Aib-Ala-Phe-Lys*3-PyrS2-2F3MeF-BztA-GlnR*3-Ala-NH2 (peptide)”, for which the IC50 in test [2] is more than 3 µM. Still for that read-out and setting: for “Ac-PL3-Asp-Npg-B5-Asp-Asn-Aib-Ala-Phe-Lys*3-PyrS2-2F3MeF-BztA-GlnR*3-Ala-NH2 (peptide)” the value was more than 3 µM; for “Ac-PL3-Asp-Npg-B5-Asp-Asp-Aib-Ala-Phe-Lys*3-PyrS2-2F3MeF-BztA-GlnR*3-Ala-NH2 (peptide)”, more than 3 µM. On the same count and under the same terms, for “Ac-PL3-Asp-Npg-B5-Asp-Gln-Aib-Ala-Phe-Lys*3-PyrS2-2F3MeF-BztA-GlnR*3-Ala-NH2 (peptide)” the value was more than 3 µM; for “Ac-PL3-Asp-Npg-B5-Asp-Glu-Aib-Ala-Phe-Lys*3-PyrS2-2F3MeF-BztA-GlnR*3-Ala-NH2 (peptide)”, more than 3 µM; for “Ac-PL3-Asp-Npg-B5-Asp-Ser-Aib-Ala-Phe-Lys*3-PyrS2-2F3MeF-BztA-GlnR*3-Ala-NH2 (peptide)”, more than 3 µM.

The substance “Ac-PL3-Asp-Npg-B5-Asp-aThr-Aib-Ala-Phe-Lys*3-PyrS2-2F3MeF-BztA-GlnR*3-Ala-NH2 (peptide)” yielded an IC50 in test [2] of more than 3 µM. “Ac-PL3-Asp-Npg-B5-Asp-dGlu-Aib-Ala-Phe-Lys*3-PyrS2-2F3MeF-BztA-GlnR*3-Ala-NH2 (peptide)”: the IC50 in test [3] is less than 0.05 µM.

In test [4], “C-1: Ac-PL3-Asp-Npg-B5-Asp-3COOHF-Ala-Ala-Phe-Leu-PyrS2-2F3MeF-BztA-Gln-NH2 (peptide)” gave a beta-catenin TCF4 DLD1 cell reporter assay IC50 of 9.8 µM. “I-376: Ac-PL3-Asp-Npg-B5-Asp-3COOHF-Aib-Ala-Phe-[oXyl]Cys-PyrS2-2F3MeF-BztA-Cys-Ala-NH2 (peptide)” gave an IC50 in test [5] of 0.22 µM. That is a sub-micromolar value.

“I-377: Ac-PL3-Asp-Npg-B5-Asp-3COOHF-Aib-Ala-Phe-[pXyl]Cys-PyrS2-2F3MeF-BztA-Cys-Ala-NH2 (peptide)” returned an IC50 in test [5] of 0.093 µM. “I-566: Ac-PL3-Asp-Npg-B5-Asp-3COOHF-Aib-Ala-Phe-[2_6-naph]Cys-PyrS2-3Thi-BztA-Cys-Ala-NH2 (peptide)” registered an IC50 in test [5] of 0.058 µM. In test [4], the beta-catenin TCF4 DLD1 cell reporter assay IC50 is more than 20 µM.

In test [5], “I-567: Ac-PL3-Asp-Npg-B5-Asp-3COOHF-Aib-Ala-Phe-[3_3-biph]Cys-PyrS2-3Thi-BztA-Cys-Ala-NH2 (peptide)” displayed an IC50 of 0.12 µM. In test [4], the beta-catenin TCF4 DLD1 cell reporter assay IC50 is more than 20 µM.

Turning to Peptide A, the IC50 in test [6] was 3 µM. In test [7], this substance gave an AXIN2 expression in DLD1 cells, IC50 of 9.3 µM and an SP5 expression in DLD1 cells, IC50 of 9 µM.
